Experimental data reported in IntAct's records for PubMed 21293379.

B1: Histone-lysine N-methyltransferase NSD2 (Homo sapiens), O96028-1 (parent)
chain: MEFSIKQSPLSVQSVVKCIKMKQAPEILGSANGKTPSCEVNRECSVFLSKAQLSSSLQEGVMQKFNGHDALPFIPADKLKDLTSRVFNGEPGAHDAKLRFESQEMKGIGTPPNTTPIKNGSPEIKLKITKTYMNGKPLFESSICGDSAADVSQSEENGQKPENKARRNRKRSIKYDSLLEQGLVEAALVSKISSPSDKKIPAKKESCPNTGRDKDHLLKYNVGDLVWSKVSGYPWWPCMVSADPLLHSYTKLKGQKKSARQYHVQFFGDAPERAWIFEKSLVAFEGEGQFEKLCQESAKQAPTKAEKIKLLKPISGKLRAQWEMGIVQAEEAASMSVEERKAKFTFLYVGDQLHLNPQVAKEAGIAAESLGEMAESSGVSEEAAENPKSVREECIPMKRRRRAKLCSSAETLESHPDIGKSTPQKTAEADPRRGVGSPPGRKKTTVSMPRSRKGDAASQFLVFCQKHRDEVVAEHPDASGEEIEELLRSQWSLLSEKQRARYNTKFALVAPVQAEEDSGNVNGKKRNHTKRIQDPTEDAEAEDTPRKRLRTDKHSLRKRDTITDKTARTSSYKAMEAASSLKSQAATKNLSDACKPLKKRNRASTAASSALGFSKSSSPSASLTENEVSDSPGDEPSESPYESADETQTEVSVSSKKSERGVTAKKEYVCQLCEKPGSLLLCEGPCCGAFHLACLGLSRRPEGRFTCSECASGIHSCFVCKESKTDVKRCVVTQCGKFYHEACVKKYPLTVFESRGFRCPLHSCVSCHASNPSNPRPSKGKMMRCVRCPVAYHSGDACLAAGCSVIASNSIICTAHFTARKGKRHHAHVNVSWCFVCSKGGSLLCCESCPAAFHPDCLNIEMPDGSWFCNDCRAGKKLHFQDIIWVKLGNYRWWPAEVCHPKNVPPNIQKMKHEIGEFPVFFFGSKDYYWTHQARVFPYMEGDRGSRYQGVRGIGRVFKNALQEAEARFREIKLQREARETQESERKPPPYKHIKVNKPYGKVQIYTADISEIPKCNCKPTDENPCGFDSECLNRMLMFECHPQVCPAGEFCQNQCFTKRQYPETKIIKTDGKGWGLVAKRDIRKGEFVNEYVGELIDEEECMARIKHAHENDITHFYMLTIDKDRIIDAGPKGNYSRFMNHSCQPNCETLKWTVNGDTRVGLFAVCDIPAGTELTFNYNLDCLGNEKTVCRCGASNCSGFLGDRPKTSTTLSSEEKGKKTKKKTRRRRAKGEGKRQSEDECFRCGDGGQLVLCDRKFCTKAYHLSCLGLGKRPFGKWECPWHHCDVCGKPSTSFCHLCPNSFCKEHQDGTAFSCTPDGRSYCCEHDLGAASVRSTKTEKPPPEPGKPKGKRRRRRGWRRVTEGK

Variants of: B1
Conditions: with mdc1_human MDC1, Q14676
mdc1_human MDC1, Q14676, sequence (Q14676 whole entry): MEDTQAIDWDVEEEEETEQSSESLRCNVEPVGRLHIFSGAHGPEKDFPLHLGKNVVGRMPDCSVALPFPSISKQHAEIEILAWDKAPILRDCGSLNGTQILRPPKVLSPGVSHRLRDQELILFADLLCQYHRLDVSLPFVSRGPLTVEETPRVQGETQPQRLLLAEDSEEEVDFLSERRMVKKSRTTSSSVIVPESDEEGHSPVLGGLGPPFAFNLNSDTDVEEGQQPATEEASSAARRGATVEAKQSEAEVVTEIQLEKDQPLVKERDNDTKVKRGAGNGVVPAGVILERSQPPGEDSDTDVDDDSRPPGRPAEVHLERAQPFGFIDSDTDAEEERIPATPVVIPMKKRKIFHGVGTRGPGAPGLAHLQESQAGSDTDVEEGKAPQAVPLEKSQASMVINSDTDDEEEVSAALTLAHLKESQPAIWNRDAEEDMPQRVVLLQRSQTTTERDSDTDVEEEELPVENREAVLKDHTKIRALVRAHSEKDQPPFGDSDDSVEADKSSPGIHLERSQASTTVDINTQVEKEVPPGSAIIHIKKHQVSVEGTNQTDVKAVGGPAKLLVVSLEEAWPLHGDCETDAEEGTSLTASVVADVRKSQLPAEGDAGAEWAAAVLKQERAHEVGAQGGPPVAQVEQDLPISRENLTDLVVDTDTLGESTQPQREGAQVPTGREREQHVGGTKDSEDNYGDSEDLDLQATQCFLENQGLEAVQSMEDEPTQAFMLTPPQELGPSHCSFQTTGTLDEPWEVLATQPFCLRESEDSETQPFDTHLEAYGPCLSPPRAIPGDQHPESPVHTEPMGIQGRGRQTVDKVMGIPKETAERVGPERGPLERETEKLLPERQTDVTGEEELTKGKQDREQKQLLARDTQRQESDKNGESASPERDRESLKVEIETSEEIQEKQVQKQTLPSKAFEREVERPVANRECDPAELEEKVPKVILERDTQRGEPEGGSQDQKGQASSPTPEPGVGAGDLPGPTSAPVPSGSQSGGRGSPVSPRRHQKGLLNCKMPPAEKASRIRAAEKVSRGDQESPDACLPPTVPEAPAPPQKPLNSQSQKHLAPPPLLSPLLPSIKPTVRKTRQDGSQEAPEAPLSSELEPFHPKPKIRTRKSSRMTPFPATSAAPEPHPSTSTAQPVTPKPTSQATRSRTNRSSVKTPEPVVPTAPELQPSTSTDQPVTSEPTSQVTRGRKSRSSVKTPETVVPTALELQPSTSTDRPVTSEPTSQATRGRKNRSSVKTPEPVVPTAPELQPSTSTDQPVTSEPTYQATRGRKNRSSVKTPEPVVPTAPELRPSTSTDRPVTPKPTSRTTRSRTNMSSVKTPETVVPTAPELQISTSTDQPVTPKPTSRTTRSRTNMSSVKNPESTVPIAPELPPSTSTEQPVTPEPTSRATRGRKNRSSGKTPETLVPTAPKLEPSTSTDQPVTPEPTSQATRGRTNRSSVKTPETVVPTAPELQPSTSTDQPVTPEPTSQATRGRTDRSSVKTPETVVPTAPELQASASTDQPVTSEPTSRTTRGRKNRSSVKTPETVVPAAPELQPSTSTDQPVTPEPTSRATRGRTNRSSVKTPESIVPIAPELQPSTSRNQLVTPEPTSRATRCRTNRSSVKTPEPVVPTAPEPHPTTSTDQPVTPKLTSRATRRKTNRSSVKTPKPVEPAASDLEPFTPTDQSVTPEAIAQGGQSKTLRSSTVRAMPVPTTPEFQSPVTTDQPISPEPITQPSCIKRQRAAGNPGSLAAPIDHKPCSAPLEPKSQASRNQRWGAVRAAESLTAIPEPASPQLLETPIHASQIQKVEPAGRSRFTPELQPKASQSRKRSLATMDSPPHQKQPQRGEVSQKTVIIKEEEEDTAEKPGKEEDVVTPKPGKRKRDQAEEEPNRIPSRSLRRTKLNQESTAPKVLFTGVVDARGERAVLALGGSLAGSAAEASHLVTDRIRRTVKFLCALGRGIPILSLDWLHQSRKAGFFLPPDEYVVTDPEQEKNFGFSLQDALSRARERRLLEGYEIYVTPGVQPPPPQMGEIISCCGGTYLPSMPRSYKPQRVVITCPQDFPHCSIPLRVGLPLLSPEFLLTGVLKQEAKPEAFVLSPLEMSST

Row | effect of a mutation on the interaction | Variant
1 | disrupting interaction | S102A
